Measured values taken from patent US20210349096A1.

Molecular target: LILRB4 on human monocytic AML THP-1 cells (human) (UniProt Q8NHJ6)
Experiment: flow cytometry, anti-His tag-APC alone on wild-type THP-1 cells (negative control); lilrb4-knockout THP-1 cells in the same panel: KO 0.9% [panel e]

Sequence of LILRB4 on human monocytic AML THP-1 cells (human) (Q8NHJ6 22-448): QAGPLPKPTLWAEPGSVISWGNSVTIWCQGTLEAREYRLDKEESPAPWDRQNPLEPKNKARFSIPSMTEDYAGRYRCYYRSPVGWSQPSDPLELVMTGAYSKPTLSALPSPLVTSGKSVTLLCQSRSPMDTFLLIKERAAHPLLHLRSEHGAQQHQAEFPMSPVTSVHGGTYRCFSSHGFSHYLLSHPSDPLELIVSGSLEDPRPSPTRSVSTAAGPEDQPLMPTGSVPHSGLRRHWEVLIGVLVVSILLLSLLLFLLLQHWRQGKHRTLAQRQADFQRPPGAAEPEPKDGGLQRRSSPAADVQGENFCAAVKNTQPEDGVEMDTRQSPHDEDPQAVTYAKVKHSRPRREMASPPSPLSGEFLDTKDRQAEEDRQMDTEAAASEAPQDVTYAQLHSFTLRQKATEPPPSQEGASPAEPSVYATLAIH

Substance: Ctrl (anti-His tag-APC) (antibody)
- % of cells in the positive gate: 0.4%
